Results taken from patent US20150307603A1 (MODIQUEST B V, published 2015).
Non-standard residues stand in square brackets, D forms with d. No end group written: not given here. Cit = NC(=O)NCCC[C@H](N)C(=O)O

Assays:
[1] = molecular target: T1, human recombinant histone 2A (human); assay: ELISA, Ab 10 ug/well
T1 construct: Non-deiminated; also called H2A
Source text: (§1) The resulting OD (y-axis) is a measure for antibody binding. H1-recombinant histone 1; H1/p2-huPAD2 recombinant histone 1; H1/p4-huPAD4 recombinant histone 1, and so forth (x-axis).

[2] = molecular target: T2, huPAD2-deiminated human recombinant histone 2A (human); assay: ELISA, Ab 10 ug/well
T2 construct: also called H2A/p2; histone 2A/p2
Source text: as §1

CFC-1 [3] = molecular target: T3, CFC-1; assay: ELISA, Ab 10 ug/well
T3 construct: Positive control for anti-citrulline reactivity; also called cfc1 XG; Cfc1-peptide
Source text: as §1

[4] = molecular target: T4, huPAD4-deiminated human recombinant histone 2B (human); assay: ELISA, Ab 10 ug/well
T4 construct: also called H2B/p4
Source text: as §1

[5] = molecular target: T5, human recombinant histone 4 (human, UniProt P62805 2-103); assay: ELISA, Ab 10 ug/well
Source text: as §1

[6] = molecular target: T6, huPAD2-deiminated human recombinant histone 3 (human); assay: ELISA, Ab 10 ug/well
T6 construct: also called H3/p2; histone 3/p2
Source text: as §1

[7] = molecular target: T7, huPAD2-deiminated human recombinant histone 2B (human); assay: ELISA, Ab 10 ug/well
T7 construct: also called H2B/p2
Source text: as §1

[8] = molecular target: T8, human recombinant histone 2B (human); assay: ELISA, Ab 10 ug/well
T8 construct: Non-deiminated; also called H2B
Source text: as §1

[9] = molecular target: T9, huPAD4-deiminated human recombinant histone 3 (human); assay: ELISA, Ab 10 ug/well
T9 construct: also called H3/p4
Source text: as §1

[10] = molecular target: T10, huPAD4-deiminated human recombinant histone 2A (human); assay: ELISA, Ab 10 ug/well
T10 construct: also called H2A/p4; histone 2A/p4
Source text: as §1

[11] = molecular target: T1, human recombinant histone 2A; assay: ELISA, Ab 2 ug/well
Source text: as §1

[12] = molecular target: T2, huPAD2-deiminated human recombinant …; assay: ELISA, Ab 2 ug/well
Source text: as §1

CFC-1 [13] = molecular target: T3, CFC-1; assay: ELISA, Ab 2 ug/well
Source text: as §1

[14] = molecular target: T4, huPAD4-deiminated human recombinant …; assay: ELISA, Ab 2 ug/well
Source text: as §1

[15] = molecular target: T5, human recombinant histone 4; assay: ELISA, Ab 2 ug/well
Source text: as §1

[16] = molecular target: T6, huPAD2-deiminated human recombinant …; assay: ELISA, Ab 2 ug/well
Source text: as §1

[17] = molecular target: T7, huPAD2-deiminated human recombinant …; assay: ELISA, Ab 2 ug/well
Source text: as §1

[18] = molecular target: T8, human recombinant histone 2B; assay: ELISA, Ab 2 ug/well
Source text: as §1

[19] = molecular target: T9, huPAD4-deiminated human recombinant …; assay: ELISA, Ab 2 ug/well
Source text: as §1

[20] = molecular target: T10, huPAD4-deiminated human recombinant …; assay: ELISA, Ab 2 ug/well
Source text: as §1

[21] = molecular target: T4, huPAD4-deiminated human recombinant …; assay: ELISA, Ab 0.00064 ug/well
Source text: as §1

[22] = molecular target: T11, peptide no. 10 (human histone 2A) (human, also: biotin-labelled); assay: ELISA, Ab 0.016 ug/well
T11 construct: also called peptide 10
T11 peptide: TRIIP[Cit]HLQLAI
Method: (§2) Biotin and citrulline-containing peptides derived from histone 2A were immobilized on NEUTRAVIDIN®-coated 96-well ELISA plates (0.3 μg/well). CFC-1 and CFC-0 were coated at the same concentration and served as positive and negative controls, respectively, for specific anti-citrulline reactivity and as coating controls. Non-coated wells were used to test for aspecific binding of the antibodies. […] Detection of bound anti-citrulline antibodies was performed by incubating the wells with rabbit anti-human HRP (1:2000) for 1 hour at RT followed by incubation with TMB substrate. The resulting OD (y-axis) is a measure for antibody binding.

CFC-1 [23] = molecular target: T3, CFC-1; assay: ELISA, Ab 0.016 ug/well
Method: as §2

[24] = molecular target: T12, peptide no. 5 (human histone 2A) (human, also: biotin-labelled); assay: ELISA, Ab 0.016 ug/well
T12 construct: also called peptide 5
T12 peptide: VGRVH[Cit]LLRKGN
Method: as §2

[25] = molecular target: T13, peptide no. 9 (human histone 2A) (human, also: biotin-labelled); assay: ELISA, Ab 0.016 ug/well
T13 construct: also called peptide 9
T13 peptide: DNKKT[Cit]IIPRHL
Method: as §2

[26] = molecular target: T14, peptide no. 6 (human histone 2A) (human, also: biotin-labelled); assay: ELISA, Ab 0.016 ug/well
T14 construct: also called peptide 6
T14 peptide: VHRLL[Cit]KGNYSE
Method: as §2

[27] = molecular target: T15, peptide no. 7 (human histone 2A) (human, also: biotin-labelled); assay: ELISA, Ab 0.016 ug/well
T15 construct: also called peptide 7
T15 peptide: GNYSE[Cit]VGAGAP
Method: as §2

[28] = molecular target: T16, peptide no. 2 (human histone 2A) (human, also: biotin-labelled); assay: ELISA, Ab 0.016 ug/well
T16 construct: also called peptide 2
T16 peptide: AKAKS[Cit]SSRAGL
Method: as §2

[29] = molecular target: T17, peptide no. 4 (human histone 2A) (human, also: biotin-labelled); assay: ELISA, Ab 0.016 ug/well
T17 construct: also called peptide 4
T17 peptide: QFPVG[Cit]VHRLLR
Method: as §2

[30] = molecular target: T18, peptide no. 1 (human histone 2A) (human, also: biotin-labelled); assay: ELISA, Ab 0.016 ug/well
T18 construct: also called peptide 1; AAASGXGKQGGK
T18 peptide: AAASG[Cit]GKQGGK
Method: as §2

[31] = molecular target: T19, peptide no. 3 (human histone 2A) (human, also: biotin-labelled); assay: ELISA, Ab 0.016 ug/well
T19 construct: also called peptide 3
T19 peptide: KSRSS[Cit]AGLQFP
Method: as §2

[32] = molecular target: T20, peptide no. 8 (human histone 2A) (human, also: biotin-labelled); assay: ELISA, Ab 0.016 ug/well
T20 construct: also called peptide 8
T20 peptide: AGNAA[Cit]DNKKTR
Method: as §2

[33] = molecular target: T21, peptide no. 12 (human histone 2A) (human, also: biotin-labelled); assay: ELISA, Ab 0.016 ug/well
T21 construct: also called peptide 12
T21 peptide: NKLLG[Cit]VTIAQG
Method: as §2

[34] = molecular target: T22, peptide no. 11 (human histone 2A) (human, also: biotin-labelled); assay: ELISA, Ab 0.016 ug/well
T22 construct: also called peptide 11
T22 peptide: LQLAI[Cit]NDEELN
Method: as §2

B1: RhmAb2.102 (antibody, human IgG1, lambda)
heavy: not shown
light: QSVLTQPPSMSAAPGQKVTISCSGSSSNIGNNYVSWYQQVPGTAPKLLIYDDNKRPSGIPGRFSGSKSATSATLGITGLQAGDEADYYCGSWDDNLSVVLFGGGTKLTVLGQPKAAPSVTLFPPSSEELQANKATLVCLISDFYPGAVTVAWKADSSPVKAGVETTTPSKQSNNKYAASSYLSLTPEQWKSHRSYSCQVTHEGSTVEKTVAPTECS
notes: Human IgG1 lambda; also called Rhm2.102
OD [1]: 0.428 OD450
OD [2]: 3.41 OD450
OD (CFC-1 [3]): 3.48 OD450
OD [4]: 0.229 OD450
OD [5]: 0.825 OD450
OD [6]: 2.44 OD450
OD [7]: 0.31 OD450
OD [8]: 0.247 OD450
OD [9]: 1.31 OD450
OD [10]: 3.42 OD450
OD [11]: 0.115 OD450
OD [12]: 3.18 OD450
OD (CFC-1 [13]): 3.38 OD450
OD [14]: 0.069 OD450
OD [15]: 0.208 OD450
OD [16]: 1.94 OD450
OD [17]: 0.086 OD450
OD [18]: 0.076 OD450
OD [19]: 0.439 OD450
OD [20]: 3.13 OD450
OD [21]: 0.055 OD450
OD [22]: 0.066 OD450
OD (CFC-1 [23]): 1.46 OD450
OD [24]: 0.065 OD450
OD [25]: 0.064 OD450
OD [26]: 0.075 OD450
OD [27]: 0.061 OD450
OD [28]: 0.065 OD450
OD [29]: 0.084 OD450
OD [30]: 0.843 OD450
OD [31]: 0.07 OD450
OD [32]: 0.063 OD450
OD [33]: 0.057 OD450
OD [34]: 0.069 OD450
